From the MegaScale stability set (Tsuboyama et al. 2023)

B1: 2K2A (parent)
chain: ELREAFRLYDKEGNGYISTDVMREILAELDETLSSEDLDAMIDEIDADGSGTVDFEEFMGVMT

Variants of: B1
Experiment: folding stability dG (cDNA display proteolysis); higher = more stable
Settings: PBS, room temperature

Variant | folding stability dG [kcal/mol]
ELREAFRLYDKEGNGYISTDVMREILAELDEDLSSEDLDAMIDEIDADGSGTVDFEEFMGVMT [T32D] | 1.42
ELREAFRLYDKEGNGYISTDVMREILAELDEELSSEDLDAMIDEIDADGSGTVDFEEFMGVMT [T32E] | 1.48
ELREAFRLYDKEGNGYISTDVMREILAELDEFLSSEDLDAMIDEIDADGSGTVDFEEFMGVMT [T32F] | 1.62
ELREAFRLYDKEGNGYISTDVMREILAELDEGLSSEDLDAMIDEIDADGSGTVDFEEFMGVMT [T32G] | 1.67
ELREAFRLYDKEGNGYISTDVMREILAELDEHLSSEDLDAMIDEIDADGSGTVDFEEFMGVMT [T32H] | 1.8
ELREAFRLYDKEGNGYISTDVMREILAELDEILSSEDLDAMIDEIDADGSGTVDFEEFMGVMT [T32I] | 0.878
ELREAFRLYDKEGNGYISTDVMREILAELDEKLSSEDLDAMIDEIDADGSGTVDFEEFMGVMT [T32K] | 1.79
ELREAFRLYDKEGNGYISTDVMREILAELDELLSSEDLDAMIDEIDADGSGTVDFEEFMGVMT [T32L] | 1.46
ELREAFRLYDKEGNGYISTDVMREILAELDEMLSSEDLDAMIDEIDADGSGTVDFEEFMGVMT [T32M] | 1.52
ELREAFRLYDKEGNGYISTDVMREILAELDENLSSEDLDAMIDEIDADGSGTVDFEEFMGVMT [T32N] | 1.86
ELREAFRLYDKEGNGYISTDVMREILAELDEPLSSEDLDAMIDEIDADGSGTVDFEEFMGVMT [T32P] | 0.441
ELREAFRLYDKEGNGYISTDVMREILAELDEQLSSEDLDAMIDEIDADGSGTVDFEEFMGVMT [T32Q] | 1.57
ELREAFRLYDKEGNGYISTDVMREILAELDERLSSEDLDAMIDEIDADGSGTVDFEEFMGVMT [T32R] | 1.74
ELREAFRLYDKEGNGYISTDVMREILAELDESLSSEDLDAMIDEIDADGSGTVDFEEFMGVMT [T32S] | 1.99
ELREAFRLYDKEGNGYISTDVMREILAELDEVLSSEDLDAMIDEIDADGSGTVDFEEFMGVMT [T32V] | 0.877
ELREAFRLYDKEGNGYISTDVMREILAELDEWLSSEDLDAMIDEIDADGSGTVDFEEFMGVMT [T32W] | 1.62
ELREAFRLYDKEGNGYISTDVMREILAELDEYLSSEDLDAMIDEIDADGSGTVDFEEFMGVMT [T32Y] | 1.54
ELREAFRLYDKEGNGYISTDVMREILAELDETASSEDLDAMIDEIDADGSGTVDFEEFMGVMT [L33A] | 1.02
ELREAFRLYDKEGNGYISTDVMREILAELDETCSSEDLDAMIDEIDADGSGTVDFEEFMGVMT [L33C] | 1.07
ELREAFRLYDKEGNGYISTDVMREILAELDETDSSEDLDAMIDEIDADGSGTVDFEEFMGVMT [L33D] | -0.084
ELREAFRLYDKEGNGYISTDVMREILAELDETESSEDLDAMIDEIDADGSGTVDFEEFMGVMT [L33E] | -0.382
ELREAFRLYDKEGNGYISTDVMREILAELDETFSSEDLDAMIDEIDADGSGTVDFEEFMGVMT [L33F] | 1.34

Variant | folding stability dG [kcal/mol]
ELREAFRLYDKEGNGYISTDVMREILAELDETGSSEDLDAMIDEIDADGSGTVDFEEFMGVMT [L33G] | -0.126
ELREAFRLYDKEGNGYISTDVMREILAELDETHSSEDLDAMIDEIDADGSGTVDFEEFMGVMT [L33H] | 0.717
ELREAFRLYDKEGNGYISTDVMREILAELDETISSEDLDAMIDEIDADGSGTVDFEEFMGVMT [L33I] | 1.36
ELREAFRLYDKEGNGYISTDVMREILAELDETKSSEDLDAMIDEIDADGSGTVDFEEFMGVMT [L33K] | 0.956
ELREAFRLYDKEGNGYISTDVMREILAELDETMSSEDLDAMIDEIDADGSGTVDFEEFMGVMT [L33M] | 1.41
ELREAFRLYDKEGNGYISTDVMREILAELDETNSSEDLDAMIDEIDADGSGTVDFEEFMGVMT [L33N] | 0.113
ELREAFRLYDKEGNGYISTDVMREILAELDETPSSEDLDAMIDEIDADGSGTVDFEEFMGVMT [L33P] | -0.18
ELREAFRLYDKEGNGYISTDVMREILAELDETQSSEDLDAMIDEIDADGSGTVDFEEFMGVMT [L33Q] | 0.501
ELREAFRLYDKEGNGYISTDVMREILAELDETRSSEDLDAMIDEIDADGSGTVDFEEFMGVMT [L33R] | 1.36
ELREAFRLYDKEGNGYISTDVMREILAELDETSSSEDLDAMIDEIDADGSGTVDFEEFMGVMT [L33S] | 0.411
ELREAFRLYDKEGNGYISTDVMREILAELDETTSSEDLDAMIDEIDADGSGTVDFEEFMGVMT [L33T] | 0.695
ELREAFRLYDKEGNGYISTDVMREILAELDETVSSEDLDAMIDEIDADGSGTVDFEEFMGVMT [L33V] | 0.861
ELREAFRLYDKEGNGYISTDVMREILAELDETWSSEDLDAMIDEIDADGSGTVDFEEFMGVMT [L33W] | 1.83
ELREAFRLYDKEGNGYISTDVMREILAELDETYSSEDLDAMIDEIDADGSGTVDFEEFMGVMT [L33Y] | 1.43
ELREAFRLYDKEGNGYISTDVMREILAELDETLASEDLDAMIDEIDADGSGTVDFEEFMGVMT [S34A] | 1.26
ELREAFRLYDKEGNGYISTDVMREILAELDETLCSEDLDAMIDEIDADGSGTVDFEEFMGVMT [S34C] | 1.2
ELREAFRLYDKEGNGYISTDVMREILAELDETLDSEDLDAMIDEIDADGSGTVDFEEFMGVMT [S34D] | 1.3
ELREAFRLYDKEGNGYISTDVMREILAELDETLESEDLDAMIDEIDADGSGTVDFEEFMGVMT [S34E] | 1.05
ELREAFRLYDKEGNGYISTDVMREILAELDETLFSEDLDAMIDEIDADGSGTVDFEEFMGVMT [S34F] | 0.67
ELREAFRLYDKEGNGYISTDVMREILAELDETLGSEDLDAMIDEIDADGSGTVDFEEFMGVMT [S34G] | 1.26
ELREAFRLYDKEGNGYISTDVMREILAELDETLHSEDLDAMIDEIDADGSGTVDFEEFMGVMT [S34H] | 0.919
ELREAFRLYDKEGNGYISTDVMREILAELDETLISEDLDAMIDEIDADGSGTVDFEEFMGVMT [S34I] | 0.894

Variant | folding stability dG [kcal/mol]
ELREAFRLYDKEGNGYISTDVMREILAELDETLKSEDLDAMIDEIDADGSGTVDFEEFMGVMT [S34K] | 1.45
ELREAFRLYDKEGNGYISTDVMREILAELDETLLSEDLDAMIDEIDADGSGTVDFEEFMGVMT [S34L] | 1.21
ELREAFRLYDKEGNGYISTDVMREILAELDETLMSEDLDAMIDEIDADGSGTVDFEEFMGVMT [S34M] | 1.27
ELREAFRLYDKEGNGYISTDVMREILAELDETLNSEDLDAMIDEIDADGSGTVDFEEFMGVMT [S34N] | 1.58
ELREAFRLYDKEGNGYISTDVMREILAELDETLPSEDLDAMIDEIDADGSGTVDFEEFMGVMT [S34P] | 0.476
ELREAFRLYDKEGNGYISTDVMREILAELDETLQSEDLDAMIDEIDADGSGTVDFEEFMGVMT [S34Q] | 1.18
ELREAFRLYDKEGNGYISTDVMREILAELDETLRSEDLDAMIDEIDADGSGTVDFEEFMGVMT [S34R] | 1.47
ELREAFRLYDKEGNGYISTDVMREILAELDETLTSEDLDAMIDEIDADGSGTVDFEEFMGVMT [S34T] | 2.12
ELREAFRLYDKEGNGYISTDVMREILAELDETLVSEDLDAMIDEIDADGSGTVDFEEFMGVMT [S34V] | 1.02
ELREAFRLYDKEGNGYISTDVMREILAELDETLWSEDLDAMIDEIDADGSGTVDFEEFMGVMT [S34W] | 0.76
ELREAFRLYDKEGNGYISTDVMREILAELDETLYSEDLDAMIDEIDADGSGTVDFEEFMGVMT [S34Y] | 0.751
ELREAFRLYDKEGNGYISTDVMREILAELDETLSAEDLDAMIDEIDADGSGTVDFEEFMGVMT [S35A] | 1.92
ELREAFRLYDKEGNGYISTDVMREILAELDETLSCEDLDAMIDEIDADGSGTVDFEEFMGVMT [S35C] | 1.64
ELREAFRLYDKEGNGYISTDVMREILAELDETLSDEDLDAMIDEIDADGSGTVDFEEFMGVMT [S35D] | 1.92
ELREAFRLYDKEGNGYISTDVMREILAELDETLSEEDLDAMIDEIDADGSGTVDFEEFMGVMT [S35E] | 2.15
ELREAFRLYDKEGNGYISTDVMREILAELDETLSFEDLDAMIDEIDADGSGTVDFEEFMGVMT [S35F] | 1.48
ELREAFRLYDKEGNGYISTDVMREILAELDETLSGEDLDAMIDEIDADGSGTVDFEEFMGVMT [S35G] | 1.78
ELREAFRLYDKEGNGYISTDVMREILAELDETLSHEDLDAMIDEIDADGSGTVDFEEFMGVMT [S35H] | 1.82
ELREAFRLYDKEGNGYISTDVMREILAELDETLSIEDLDAMIDEIDADGSGTVDFEEFMGVMT [S35I] | 1.79
ELREAFRLYDKEGNGYISTDVMREILAELDETLSKEDLDAMIDEIDADGSGTVDFEEFMGVMT [S35K] | 2.14
ELREAFRLYDKEGNGYISTDVMREILAELDETLSLEDLDAMIDEIDADGSGTVDFEEFMGVMT [S35L] | 1.69
ELREAFRLYDKEGNGYISTDVMREILAELDETLSMEDLDAMIDEIDADGSGTVDFEEFMGVMT [S35M] | 1.86

Variant | folding stability dG [kcal/mol]
ELREAFRLYDKEGNGYISTDVMREILAELDETLSNEDLDAMIDEIDADGSGTVDFEEFMGVMT [S35N] | 1.85
ELREAFRLYDKEGNGYISTDVMREILAELDETLSPEDLDAMIDEIDADGSGTVDFEEFMGVMT [S35P] | 2.06
ELREAFRLYDKEGNGYISTDVMREILAELDETLSQEDLDAMIDEIDADGSGTVDFEEFMGVMT [S35Q] | 2.05
ELREAFRLYDKEGNGYISTDVMREILAELDETLSREDLDAMIDEIDADGSGTVDFEEFMGVMT [S35R] | 1.96
ELREAFRLYDKEGNGYISTDVMREILAELDETLSTEDLDAMIDEIDADGSGTVDFEEFMGVMT [S35T] | 1.81
ELREAFRLYDKEGNGYISTDVMREILAELDETLSVEDLDAMIDEIDADGSGTVDFEEFMGVMT [S35V] | 1.77
ELREAFRLYDKEGNGYISTDVMREILAELDETLSWEDLDAMIDEIDADGSGTVDFEEFMGVMT [S35W] | 1.48
ELREAFRLYDKEGNGYISTDVMREILAELDETLSYEDLDAMIDEIDADGSGTVDFEEFMGVMT [S35Y] | 1.53
ELREAFRLYDKEGNGYISTDVMREILAELDETLSSADLDAMIDEIDADGSGTVDFEEFMGVMT [E36A] | 1.96
ELREAFRLYDKEGNGYISTDVMREILAELDETLSSCDLDAMIDEIDADGSGTVDFEEFMGVMT [E36C] | 1.85
ELREAFRLYDKEGNGYISTDVMREILAELDETLSSDDLDAMIDEIDADGSGTVDFEEFMGVMT [E36D] | 1.89
ELREAFRLYDKEGNGYISTDVMREILAELDETLSSFDLDAMIDEIDADGSGTVDFEEFMGVMT [E36F] | 1.83
ELREAFRLYDKEGNGYISTDVMREILAELDETLSSGDLDAMIDEIDADGSGTVDFEEFMGVMT [E36G] | 1.54
ELREAFRLYDKEGNGYISTDVMREILAELDETLSSHDLDAMIDEIDADGSGTVDFEEFMGVMT [E36H] | 1.65
ELREAFRLYDKEGNGYISTDVMREILAELDETLSSIDLDAMIDEIDADGSGTVDFEEFMGVMT [E36I] | 1.53
ELREAFRLYDKEGNGYISTDVMREILAELDETLSSKDLDAMIDEIDADGSGTVDFEEFMGVMT [E36K] | 1.81
ELREAFRLYDKEGNGYISTDVMREILAELDETLSSLDLDAMIDEIDADGSGTVDFEEFMGVMT [E36L] | 1.66
ELREAFRLYDKEGNGYISTDVMREILAELDETLSSMDLDAMIDEIDADGSGTVDFEEFMGVMT [E36M] | 1.7
ELREAFRLYDKEGNGYISTDVMREILAELDETLSSNDLDAMIDEIDADGSGTVDFEEFMGVMT [E36N] | 1.66
